The values that follow come from US20250304677A1 (VIB VZW, published 2025).

For orientation: Kd means the equilibrium constant for the complex coming apart. For orientation: koff means a measure of how fast the partners let go of each other. For orientation: kon means the rate constant with which the complex forms. In general, EC50 refers to the concentration needed to bring the measured effect to its halfway point. The term EC50 (read off the curve) denotes the midpoint of the concentration-response curve. In general, IC50 refers to the concentration that gives 50% inhibition.

The target of experiment [1] is T1, mouse folate receptor alpha (mFRα), recombinant protein (mouse, UniProt P35846 25-232).
T1 construct: Bought recombinant proteins (e.g. biotinylated, Acro Biosystems FO1-M82E9); also called mFOLR1; Ms FOLR1
T1 sequence (P35846 25-232 limits assumed): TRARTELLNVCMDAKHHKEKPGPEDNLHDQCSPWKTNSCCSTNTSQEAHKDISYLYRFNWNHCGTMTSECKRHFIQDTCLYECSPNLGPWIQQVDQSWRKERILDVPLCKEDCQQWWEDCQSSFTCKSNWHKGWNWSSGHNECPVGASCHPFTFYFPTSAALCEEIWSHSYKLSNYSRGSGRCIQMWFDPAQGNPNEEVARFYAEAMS
In words: ELISA, periplasmic extract. The text has this:
(§1) From the lymphocytes of each llama a separate VHH library was constructed to select and screen for the presence of antigen-specific VHHs. To this end, total RNA from peripheral blood lymphocytes was used as template for first strand cDNA synthesis with an oligo ^{∘}dT) primer. Using this cDNA, the VHH encoding sequences were amplified by PCR, digested with PstI and NotI, cloned into the PstI and NotI sites of the phagemid vector pMECS and transformed into E. coli to generate VHH libraries. To enrich these libraries for FRα ^{∘}or FOLR1, as used interchangeably herein)-specific VHHs, a combinatorial panning approach on recombinant human and mouse FOLR1 was used followed by random selection and screening of clones by ELISA for the presence of antigen-specific VHHs in their periplasmic extracts ^{∘}PEs). In order to gauge the cross-reactivity for human and mouse FOLR1, each clone was tested on both antigens.
(§2) After panning of core76/77 on human and mouse folate receptor alpha ^{∘}FRα), […] were randomly selected from the second and third rounds and analyzed by ELISA on both human and mouse FRα for the presence of FRα-specific VHHs in their periplasmic extracts ^{∘}PE). This led to the identification of 98 hits. For these 98 hits, the off-rate ^{∘}koff) in the PE was determined by biolayer interferometry ^{∘}BLI) on both mouse and human FRα that was directly immobilized onto AR2G biosensors. The off-rates were calculated using a 1:1 binding model. […] Abbreviations: SE: standard error.
On the technique in general: In an ELISA, binding on a coated surface is turned into a signal by an enzyme label.

Experiment [2] addresses T1, mouse folate receptor alpha (mFRα), …. As to the kind of experiment: BLI, FRα on AR2G biosensors, 1:1 model. As to the method: As a next step, the kinetic binding constants were determined using BLI ^{∘}Table 3). […] Similar to the ELISA results ^{∘}FIG. 1A-B), higher binding affinities were measured for mouse FRα than human FRα, with KD values […] one order of magnitude in most cases. […] For 3HFO28, binding to human FRα could not be confirmed by BLI, and this VHH was excluded from further characterization.
The kinetic parameters were calculated using a 1:1 binding model.
Background: Biolayer interferometry detects binding as a change in optical thickness at a sensor tip.

In experiment [3] the target is T2, human folate receptor beta (FRβ) (human, UniProt P14207 17-230, limits assumed).
T2 construct: also called hFOLR2; human FOLR2
T2 sequence (P14207 17-230 limits assumed): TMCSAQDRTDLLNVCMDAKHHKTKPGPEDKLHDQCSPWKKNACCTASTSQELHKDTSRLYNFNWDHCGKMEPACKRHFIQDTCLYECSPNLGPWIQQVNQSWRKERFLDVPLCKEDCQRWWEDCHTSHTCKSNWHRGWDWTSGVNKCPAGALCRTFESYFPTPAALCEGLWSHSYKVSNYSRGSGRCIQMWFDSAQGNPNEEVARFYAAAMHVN
In words: method not named (follows the ELISA of Example 3).

Experiment [4] concerns the target T1, mouse folate receptor alpha (mFRα), …. In words: BLI, periplasmic extract, FRα on AR2G biosensors. Here is the method: as §2
The target is the same in experiment [5]. In words: ELISA on recombinant mouse FOLR1, cMyc tag detection, normalised binding, non-linear fit. As to the method:
(§3) Data were normalized and technical replicates were plotted as mean±SD. Data were fitted by non-linear regression and the half-maximal effective concentration ^{∘}EC50) was calculated using GraphPad Prism 9 software. ^{∘}FIG. 1C and FIG. 1D) Binding affinity determination of anti-FOLR1 VHHs for native FOLR1. Mouse ^{∘}FIG. 1C) or human FOLR1 FIG. 1D) was overexpressed on HEK293T cells and binding of the anti-FOLR1 VHHs was assessed using flow cytometry. The mean fluorescence intensity ^{∘}MFI) of the phycoerythrin signal was plotted for each VHH concentration. Data were fitted by non-linear regression using GraphPad Prism 9 software. ^{∘}FIG. 1E) Determination of the competition of representative family members with folic acid ^{∘}FA) using ELISA. Mouse FOLR1 was coated on the plate and was pre-incubated with or without 100 μM FA before adding the VHHs. Data were fitted by non-linear regression using GraphPad Prism 9 software.
(§4) In a first step, binding affinity and cross-reactivity of the purified VHHs to human and mouse FRα was assessed by ELISA, using detection of the cMyc tag ^{∘}FIG. 1A-B). […] 2HFO19 ^{∘}family 1) was the best binder of all tested VHHs to both mouse and human FRα with an EC₅₀ of 0.1 nM and 0.4 nM respectively ^{∘}FIG. 1A-B).

In experiment [6] the target is T3, human folate receptor alpha (hFRα), recombinant protein (human, UniProt P15328 25-233).
T3 construct: Bought recombinant proteins (His-tagged, or biotinylated via Avi-tag, e.g. AcroBiosystems FO1-H82E2, F01-H52H1); also called hFOLR1; huFOLR1
T3 sequence (P15328 25-233 limits assumed): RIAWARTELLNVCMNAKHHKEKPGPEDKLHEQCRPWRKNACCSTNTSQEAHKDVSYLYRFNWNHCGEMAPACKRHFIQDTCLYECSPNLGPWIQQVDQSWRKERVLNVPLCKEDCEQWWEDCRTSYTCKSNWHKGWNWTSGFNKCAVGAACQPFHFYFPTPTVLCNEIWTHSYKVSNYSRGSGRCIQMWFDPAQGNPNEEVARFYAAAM
In words: ELISA on recombinant human FOLR1, cMyc tag detection, normalised binding, non-linear fit. As to the method: as §3, §4

In experiment [7] the target is T3, human folate receptor alpha (hFRα), …. In words: BLI, periplasmic extract, FRα on AR2G biosensors; unpurified periplasmic extract, BLI off-rate screen. Here is the method:
as §2

Experiment [8] has the same target. As to the kind of experiment: ELISA, periplasmic extract; unpurified periplasmic extract, PE-ELISA (ratio of coated to uncoated well).
Text: as §1, with “In order to gauge the cross-reactivity for human and mouse FOLR1, each clone was tested on both antigens.” left out
After panning of core76/77 on human and mouse folate receptor alpha ^{∘}FRα), 95 colonies were randomly selected from the second and third rounds and analyzed by ELISA on both human and mouse FRα for the presence of FRα-specific VHHs in their periplasmic extracts ^{∘}PE). […] For these 98 hits, the off-rate ^{∘}koff) in the PE was determined by biolayer interferometry ^{∘}BLI) on both mouse and human FRα that was directly immobilized onto AR2G biosensors. The off-rates were calculated using a 1:1 binding model. […]

The target of experiment [9] is T1, mouse folate receptor alpha (mFRα), …. As to the kind of experiment: ELISA on mouse FRα, anti-VHH detection. The method, boiled down: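 Dose-dependent binding of VHH variants to mouse folate receptor alpha was measured by ELISA with anti-VHH detection. EC50 was read off the dose-response curve.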
Experiment [10] addresses T3, human folate receptor alpha (hFRα), …. As to the kind of experiment: ITC, VHH injected into 6.5 µM glycosylated human FOLR1. The text has this:
(§5) To exclude the presence of a potential additional binding site mediated by the CDR4 region, we determined the stoichiometry if the humanized variant h1 2HFO42 (P01500001) and h1 2MFR67 (P01500005) interaction with human FOLR1 in isothermal titration […] (ITC) studies, using glycosylated human FOLR protein (AcroBiosystems Cat. Nr F01-H52H1). All proteins were dialysed overnight to PBS buffer and concentrated using Amicon Ultra 10 kDa cut-off centrifugal filter devices. Human FOLR1 was used at a concentration of 6.5 μM in the cell. Titrations comprised 26×1.5 μL injections of VHH into the protein, with 90 s intervals. An initial injection of ligand (0.4 μL) was made and discarded during data analysis. All data were performed at room temperature. The data were fitted to a single binding site model using the PEAQ ITC analysis software provided by the manufacturer.
Similarly, a stoichiometry of 1:1 was determined for the 2MFR67-FOLR1 interaction. When comparing the thermodynamic parameters, binding of 2MFR67 to FOLR1 comes with an entropic penalty, whereas the entropic contribution for humanised 2HFO42-FOLR1 binding is favorable. This could be a consequence of the CDR4 loop having more freedom in 2MFR67, resulting in an entropic penalty upon binding. […]
(In general: Isothermal titration calorimetry measures the heat released or taken up as one component is titrated into another.)

For experiment [11] the target is unchanged. In words: competition AlphaLISA against 2MFR67-Flag3-His6 on human FRα. As to the method: Secondly, the variants were analysed for the capacity to compete with binding of family 3 VHH 2MFR67 to human FRα in a competition AlphaLISA, which is a homogeneous assay without wash steps. In here, human FRα biotinylated through an Avi-tag ^{∘}FO1-H82E2, AcroBiosystems) is captured on streptavidin coated Alpha Donor beads ^{∘}Perkin Elmer, Cat nr. 6760002), while the 2MFR67 is captured on anti-Flag antibody AlphaLISA acceptor beads ^{∘}Perkin Elmer, Cat nr. AL112C). Binding of 2MFR67 to the FRα leads to an energy transfer from one bead to the other, ultimately producing a fluorescent signal. To each well of white low binding 384-well microtitre plates ^{∘}F-bottom, Greiner Cat nr 781904), 5 μl of serial-diluted VHHs are mixed with 5 μl of 2.5 nM monovalent 2MFR67-Flag3-His6 and 5 μl of 15 nM biotinylated human FRα protein. After an incubation for 1 hour at room temperature, streptavidin coated Alpha Donor beads and anti-Flag AlphaLISA acceptor beads were added to a final concentration of 20 μg/mL each in a final volume of 25 μl for an incubation of 1 hour at room temperature in the dark. Interaction between beads was assessed after illumination at 680 nm and reading at 615 nm of on an Ensight instrument. Curve fitting is done in Graphpad Prism 9.0 using 4PL non-linear regression analysis.

Experiment [12] has the same target. In words: BLI, Avi-biotinylated FRα on streptavidin biosensors, VHH 100 nM. Here is the method: (§6) The binding of humanized variants of 2HFO42 was assessed by kinetic binding analysis to mouse and human FRα protein, biotinylated via an Avi-tag, captured on streptavidin biosensors by biolayer interferometry ^{∘}BLI), essentially as described earlier. VHHs were analysed at 100 nM concentration, and off-rates were determined using fitting of 1:1 langmurian interaction. Dissociation constants were compared to 2HFO42^{∘}Q1E, Q5V, Q108L) ^{∘}P101500004) and 2MFR67 ^{∘}Q1E, Q5V, Q108L) ^{∘}P0150000), respectively.

In experiment [13] the target is T1, mouse folate receptor alpha (mFRα), …. The description is as above. As to the method: as §6
The target in experiment [14] is T3, human folate receptor alpha (hFRα), …. In words: ITC, VHH injected into 6.5 µM glycosylated human FOLR1 in PBS, room temperature, single binding site model.
Text: as §5

Experiment [15] has the same target. In words: BLI, biotinylated FOLR1 on streptavidin biosensors. As to the method:
(§7) The off-rates of the 2HFO9 ^{∘}FIG. 5A) and 2MFR67 ^{∘}FIG. 5B) mutants and the three wild-type ^{∘}WT) VHHs from family 3 were determined by biolayer interferometry ^{∘}BLI) on both mouse and human biotinylated folate receptor alpha ^{∘}FOLR1) that was immobilized on streptavidin biosensors. The off-rates were calculated using a 1:1 binding model. The fold change compared to the off-rates of the corresponding WT VHH is represented as the WT VHH off-rate divided by the off-rate of the mutant for the VHHs that show an improved off-rate compared to the WT. For the VHHs that show a worse off-rate compared to the WT, the fold change is represented as the negative value of the mutant VHH off-rate divided by the WT off-rate. The red bars represent the WT 2HFO9 and 2MFR67 in the upper and lower panel respectively.

Experiment [16] has as its target T1, mouse folate receptor alpha (mFRα), …. In words: BLI, biotinylated FOLR1 on streptavidin biosensors. As to the method:
as §7

Experiment [17] shares this target. As to the kind of experiment: method of this value not stated (ELISA, BLI and FACS named).

Residue numbers refer to the chain shown, from its start. In names and notes the source's numbering stands.

B1: VHH 3HFO28 (family 7) (VHH)
VHH: QVQLQESGGGLVQPGGSLRLSCAASGSTLDRYEIGWFRQAPGKGRERVSCISTTSSTYEDSVKGRFTISRDNAKNTVYLQMNSLKPEDTAVYYCATVRVAWSTCFPTGDSWGKGTQVTVSS
Take B1: the entries for the “PE-ELISA (ratio to uncoated well)” value in experiment [1] and in experiment [8] were 34.9 and 35.6, respectively. Further, the Kd in experiment [2] turned out to be 12.6 nM. Moreover, the dissociation rate constant (koff) in experiment [2] worked out at 0.00582 s⁻¹; in [4] it was 0.00425 s⁻¹; in experiment [7], 0.00827 s⁻¹. Further, the on-rate (kon) in [2] was determined as 464000 M⁻¹ s⁻¹. Also, in [3], the binding result is “no binding”. Moreover, the half-maximal effective concentration (EC50) is 84.3 nM in experiment [5] and 1.5 nM in [6].

B2: P01500001 = humanised variant 1 (h1) 2HFO42-His6: 2HF042(Q1E, Q5V, A14P, V40A, L79Y, K83R, Q108L)-HIS6 (VHH)
VHH: EVQLVESGGGLVQPGGSLRLSCAASGSGFSGMIMGWYRQAPGKQRELVATVTSHGTTNYADSVKGRFTISRDNAKNTVYLQMNSLRPEDTAVYYCNAHFPGIYWGKGTLVTVSS
notes: Entry includes the tag; also called P0150001; humanised 2HFO42
Take B2: in experiment [9], the “EC50 (read off the curve)” value is about 4 nM. Besides, in experiment [10], the “stoichiometry (ITC)” value worked out at 1. In [11], the 50% inhibitory concentration (IC50) worked out at 37.3 nM. Moreover, the koff in [12] amounted to 0.011 s⁻¹. Besides, the koff in [13] is 0.00126 s⁻¹. In experiment [14], the “-TΔS” value is -3.04 kcal/mol, the dissociation constant Kd amounted to 39.2 nM, the ΔG is -10.1 kcal/mol and the ΔH was -7.07 kcal/mol.

B3: 2HFO42-NT (2HFO42 fused to neurotensin) (VHH)
VHH: B2 VHH with E1Q, V5Q, P14A, A40V, Y79L, R86K, L109Q
For B3, in experiment [15], the “Fold hu/ms (koff)” value stood at 7 and the dissociation rate constant (koff) turned out to be 0.0154 s⁻¹. For the same molecule, in experiment [16], the “Fold to 2HF042 (koff)” value came to 1 and the dissociation rate constant (koff) stood at 0.00222 s⁻¹. For the same molecule, the Kd in experiment [17] was determined as 23.3 nM.

B4: P01500005: 2MFR67(Q1E, Q5V, Q108L)-HIS6 (VHH)
VHH: B2 VHH with P14A, D72E, N73D, A74S, Y79L, R86K
notes: Entry includes the tag; also called 2MFR67 (P01500005); P0150005
For the molecule B4, the “EC50 (read off the curve)” value in experiment [9] is about 3 nM. For the same molecule, in experiment [10], the “stoichiometry (ITC)” value amounted to 1. Moreover, the IC50 in experiment [11] is 5.53 nM. Moreover, the koff in experiment [12] is 0.00353 s⁻¹. Moreover, the off-rate constant (koff) in experiment [13] worked out at 0.000532 s⁻¹. Moreover, in experiment [14], the “-TΔS” value was 3.57 kcal/mol, the dissociation constant (Kd) stood at 18.2 nM, the ΔG is -10.6 kcal/mol and the ΔH was -14.1 kcal/mol.
